The results in this text go back to patent US20050251879A1 (published 2005).

Test [1] has as its target T1, Potato virus Y capsid protein (PVY CP) fused with the Gal4 binding domain (Potato virus Y (N strain), UniProt P04386 1-147; P18247 2797-3063).
T1 construct: also called pGBT9-PVY CP; PVY envelope protein
Kind of test: yeast two-hybrid, lacZ activity.

For test [2], the target named is Tobacco vein mottling virus capsid protein (TVMV CP), Gal4 binding domain fusion (Tobacco vein mottling virus, UniProt P04386 1-147; P09814 2759-3023). Kind of test: yeast two-hybrid, HIS3 and lacZ reporters.
The target of test [3] is T2, Gal4 binding domain alone (pGBT1) (UniProt P04386 1-147).
T2 construct: Control
The experiment in a line: yeast two-hybrid, lacZ activity.

Test [4] deals with T3, SNF1 fused with the Gal4 binding domain (pBD-SNF1) (UniProt P04386 1-147; P06782 1-633).
T3 construct: Control plasmid, bought
The experiment in a line: yeast two-hybrid, lacZ activity.

Test [5] has as its target T1, Potato virus Y capsid protein (PVY CP) …. The experiment in a line: yeast two-hybrid, lacZ reporter.

Residue numbers refer to the chain shown, from its start.

B1: SNF4 fused with the Gal4 activation domain (pAD-SNF4) (other)
chain: MKPTQDSQEKVSIEQQLAVESIRKFLNSKTSYDVLPVSYRLIVLDTSLLVKKSLNVLLQNSIVSAPLWDSKTSRFAGLLTTTDFINVIQYYFSNPDKFELVDKLQLDGLKDIERALGVDQLDTASIHPSRPLFEACLKMLESRSGRIPLIDQDEETHREIVVSVLTQYRILKFVALNCRETHFLKIPIGDLNIITQDNMKSCQMTTPVIDVIQMLTQGRVSSVPIIDENGYLINVYEAYDVLGLIKGGIYNDLSLSVGEALMRRSDDFEGVYTCTKNDKLSTIMDNIRKARVHRFFVVDDVGRLVGVLTLSDILKYILLGSN
B1: the binding result in test [1] is on record as “no binding”.

B2: NtCPIP2a (DnaJ-like protein from Nicotiana tabacum), Gal4 activation domain fusion (other)
chain: MGLDYYNVLKVSRNASEEDLKRSYKRLAMKWHPDKNSQNKKEAEAKFKQISEAYDVLSDPQKRQIYDVYGDDALKSGQFASASPTSAGSNARGFRFNTRDAEAIFAEFFGGSGSNSGAGVGRKAAPVENKLPCSLEELYKGSRRKMKISRILLDDSGKPTTVEEVLAIHIKPGWKKGTKITFPEKGNYEPGATPGDLIFVIDEKPHAVFKRDGNDLEINQKISLLDALTGKTISLITLDGRELTIPITDIVKPGHEHIIPNEGMPISKERGKKGNLKIKFDIKFPSRLSADQKSDIRRVLCRSAD
Consider B2, for which the binding result in test [2] is “no binding”.

B3: NtCPIP2b (DnaJ-like protein from Nicotiana tabacum), Gal4 activation domain fusion (other)
chain: B2 chain with N7D, A91G, G113D, G117A, E217V, I250V, S303N, A304S
In the case of B3, the binding result in test [2] is listed as “no binding”.

B4: NtCPIP1 (DnaJ-like protein from Nicotiana tabacum) fused with the Gal4 activation domain (other)
chain: MGVDYYKILKVSRNASEEDLKKSYKRLAMKWHPDKNSEKEAEAKFKQISEAYDVLSDPQKRQIYDIYGDEALKSGQFDPSSPMNGNGRGFKFDSRDAEDIFAEFFGGSDGYSRSPTGGTVRIRKPAPVENKLPCSLEELYKGSKRKMKISRIVLDVTGKPTTIEEVLAIHIKPGWKKGTKITFPEKGNHEPGAAPGDLIFVIDEKPHDVFKRDGNDLVINQKISLVDALSGKIINLATLDGRELTIPITDVVKPGHEQIIADEGMPISKEPGKKGNLRIKFEVKFPSRLSSDQKLDIRRVLGRTVD
notes: also called pAD-CPIP1
Regarding B4, the binding result in test [3], in test [4] and in test [2] was “no binding” in each case.

B5: NtCPIP1 Δ115N, Gal4 activation domain fusion (other)
chain: TGGTVRIRKPAPVENKLPCSLEELYKGSKRKMKISRIVLDVTGKPTTIEEVLAIHIKPGWKKGTKITFPEKGNHEPGAAPGDLIFVIDEKPHDVFKRDGNDLVINQKISLVDALSGKIINLATLDGRELTIPITDVVKPGHEQIIADEGMPISKEPGKKGNLRIKFEVKFPSRLSSDQKLDIRRVLGRTVD
In the case of B5, in test [5], the binding result is “no binding”.

B6: NtCPIP2a Δ119N, Gal4 activation domain fusion (other)
chain: VGRKAAPVENKLPCSLEELYKGSRRKMKISRILLDDSGKPTTVEEVLAIHIKPGWKKGTKITFPEKGNYEPGATPGDLIFVIDEKPHAVFKRDGNDLEINQKISLLDALTGKTISLITLDGRELTIPITDIVKPGHEHIIPNEGMPISKERGKKGNLKIKFDIKFPSRLSADQKSDIRRVLCRSAD
With B6, the binding result in test [5] is “no binding”.

B7: NtCPIP2a Δ94N, Gal4 activation domain fusion (other)
chain: RFNTRDAEAIFAEFFGGSGSNSGAGVGRKAAPVENKLPCSLEELYKGSRRKMKISRILLDDSGKPTTVEEVLAIHIKPGWKKGTKITFPEKGNYEPGATPGDLIFVIDEKPHAVFKRDGNDLEINQKISLLDALTGKTISLITLDGRELTIPITDIVKPGHEHIIPNEGMPISKERGKKGNLKIKFDIKFPSRLSADQKSDIRRVLCRSAD
As to B7, the binding result in test [5] is reported as “no binding”.
